Results on 6 substances are retold here after patent US20060110789A1, “Methods to mediate polyketide synthase module effectiveness” (priority 2002, published 2006).

Several values for one entry are separate records, joined by “and”; a condition that tells them apart may be missing. Identical values can stand only once.

One series concerns the target T1, M2 and M3+TE (Saccharopolyspora erythraea, UniProt Q03131).
T1 construct: Plasmid pBP19 contains module 2 of DEBS (M2) and is a derivative of pRSG64; made in house; host or cells: E. coli BL21(DE3) with B. subtilis sfp; pET-21c
Kind of series: Inhibition of tetraketide production by synthetic peptide, M2-M3 linker pair. It is filed as biochemical. The settings on record: M2 and M3+TE both 1.0 μM, peptide 1 to 100 μM. The protocol: (§1) Inhibition of Tetraketide Production. The ability of the synthetic peptide to inhibit the transfer reaction, and thus the production of tetraketide, was tested under the same reaction conditions described for the two module coincubations. The concentrations of M2 and M3+TE were both 1.0 μM, and the concentrations of M2(4) and (5)M3+TE were 0.5 and 1.0 μM, respectively. The only difference was the addition of the peptide at concentrations ranging from 1 to 100 μM to the assay containing M2 and M3+TE [or alternatively M2(4) and (5)M3+TE]. For greater accuracy, each inhibition assay was performed side by side with a control lacking inhibitor. The effect of the inhibitor was thus determined by dividing the inhibited rate by the control rate.

A further series addresses T2, M2(4) and (5)M3+TE (Saccharopolyspora erythraea, UniProt Q03131+Q03133, A1559G/A1612M/A1613S/A1621R/A1638S/A1707S/A1714P/A1717D/A1741R/A1766S/A1884G/A1933P/A1935T/A1951R/A1969R/A1973H/A1979Q/A2007V/A2008V/A2011V/A2018D/A2064V/A2138S/D1597P/D1620G/DEL1744-1744/DEL1923-1924/DEL1955-1967/E1628D/E1873D/E1883D/E1925V/E1947G/E1993A/E2004D/F1591L/G1618A/G1705A/G1739A/G1878E/G1927Q/G1930R/G1977A/G1990A/G1997H/G2038E/G2099R/H1599E/H1992T/I1756V/INS1626G/INS1975[…]/K1779R/K2139R/L1590A/L1610V/L1858V/L1941V/L1981F/L1987V/L1995A/L2136R/L2141V/L2144V/N1593S/N1855E/N1936G/P1725G/P1740R/P1870G/P1887E/P1889S/P1982E/Q1619T/Q1732V/Q1746R/Q1994E/Q1998R/Q2070P/R1983E/R1996V/S1600T/S1627V/S1636T/S1637A/S1670T/S1886R/S1937V/S1972D/S2041P/S2089A/S2104V/T1762S/T1948A/T1968G/T1976R/T2012V/T2015S/V1583A/V1601L/V1622P/V1623R/V1640A/V1644I/V1655L/V1708P/V1728S/V1730F/V1851L/V1879I/V1929R/V1931M/V2006A/V2021S/V2103A/V2124A/V2131M/Y1614H).
T2 construct: Plasmid pST179 encodes a derivative of M2 containing the C-terminal linker of DEBS module 4 (M4); made in house; host or cells: E. coli BL21(DE3) with B. subtilis sfp; pET-21c
Kind of series: Inhibition of tetraketide production by synthetic peptide, M4-M5 linker pair. The class given is biochemical. The settings on record: M2(4) 0.5 μM and (5)M3+TE 1.0 μM, peptide concentrations up to 100 μM. The protocol: as §1

For series [1], the system named is individually assayed modules, including M3+TE. Kind of series: Effect of synthetic peptide on individually assayed modules. It is filed as biochemical. As to the method:
In Vitro Polyketide Production Assays of individual modules contained 1.0 μM protein, 1-10 mM N-acetylcysteamine thioester of the “natural” (2S,3R)-2-methyl-3-hydroxypentanoic acid diketide (NDK) (1), 4 mM NADPH, 440 mM sodium phosphate, 1 mM EDTA, 2.5 mM dithiothreitol (DTT), and 20% w/v glycerol, pH 7.2, in 80 μL. Reactions with M2 or M2(4) included 0.3 mM ^14C-methylmalonyl-CoA (specific activity adjusted to 10.4 mCi/mmol), and those with M3+TE or (5)M3+TE included 0.5 mM ^14C-methylmalonyl-CoA (specific activity reduced to 1.1 mCi/mmol). [M2(4) refers to a derivative of M2 in which the C-terminal linker has been replaced with its counterpart from module 4, whereas (5)M3 refers to a derivative of M3 in which the N-terminal linker has been replaced with its counterpart from module 5 (see FIG. 4).] Both concentrations of methylmalonyl-CoA were saturating, but different concentrations were needed due to the disparate rates of turnover between the modules with and without the thioesterase. The reaction mixtures were preincubated to 30° C. and started with the addition of the methylmalonyl-CoA. […] Product formation was quantified by comparison with standards of the labeled methylmalonyl-CoA. […]
Inhibition of Tetraketide Production. […] The effect of the inhibitor was thus determined by dividing the inhibited rate by the control rate.

For series [2], the system named is cysteamine thioester of 2S,3R-2-methyl-3-hydroxypentanoic acid (diketide). The series is described as follows: Cell-free synthesis of triketides from diketide thioester by single module constructs. The class given is biochemical. The settings on record: 0.5-10 mM diketide thioester, 2.5 mM 14C-methylmalonyl CoA, 100 pmoles protein, 30 minutes, TLC. As to the method: (§2) A cell-free system, tested for the ability to convert the cysteamine thioester of 2S,3R-2-methyl-3-hydroxypentanoic acid (compound 2 in FIG. 2), consisted of 0.5-10 mM concentration of the thioester, 2.5 mM ^14C-labeled methylmalonyl CoA and 100 pmoles of purified protein prepared in Example 1 in a 100 μl reaction. In some cases, 1 mM of NADPH was added; this was done in assay mixtures containing (M2+TE), (M5+TE) and (M6+TE) proteins. The protein was, in each case, a single module of the DEBS PKS fused to the thioesterase (TE) termination region of module 6.
The reaction mixtures were quenched and extracted by ethyl acetate and separated by thin-layer chromatography (TLC) to discern the formation of the triketide ketolactone 3 and triketide lactone 4 (both shown in FIG. 2) after 30 minutes.
The constructs for (M2+TE) and (M6+TE) were modified by deleting the sequences encoding the amino acids upstream of the KS catalytic domain and substituting the first 39 amino acids from (M5+TE) containing the N-terminal portion of the interpolypeptide linker (N-ERL). The relevant constructs were prepared by replacing the BsaBI-EcoRI fragment in pRSG46 by the corresponding fragment from pCK4 to obtain N-ERL-M2+TE), in plasmid pRSG64, or from pJRJ10 to obtain (N-ERL-M6+TE) in plasmid pRSG54. These constructs yield modules which contain the upstream 39 amino acids from module 5.

The test system of the next series is diketide thioester. The series is described as follows: Kinetic constants kcat and KM of single module constructs converting diketide to triketide. The class given is biochemical. The protocol: as §2
The various constructs which are successful in converting diketide to triketide were then evaluated for the kinetic constants kcat and KM. […] This is evidently due to the absence of beta-carbonyl modifying enzymes in module 3 as verified by the fact that removal of NADPH, (which is required for the activity of such modules) from the reaction mixture of (N-ERL-M6+TE) also results in a lowering of the kcat.

Series [3] concerns N-acetylcysteamine thioester of (2S,3R)-2-methyl-3-hydroxypentanoic acid diketide (NDK). The series is described as follows: In vitro polyketide production assays of individual modules with NDK (kinetic analysis). The settings on record: NDK 1-10 mM, 1.0 μM protein, 30° C; M2 and M2(4) only approximate (triketide lactone 3). It is filed as biochemical. As to the method:
In Vitro Polyketide Production Assays of individual modules contained 1.0 μM protein, 1-10 mM N-acetylcysteamine thioester of the “natural” (2S,3R)-2-methyl-3-hydroxypentanoic acid diketide (NDK) (1), 4 mM NADPH, 440 mM sodium phosphate, 1 mM EDTA, 2.5 mM dithiothreitol (DTT), and 20% w/v glycerol, pH 7.2, in 80 μL. Reactions with M2 or M2(4) included 0.3 mM ^14C-methylmalonyl-CoA (specific activity adjusted to 10.4 mCi/mmol), and those with M3+TE or (5)M3+TE included 0.5 mM ^14C-methylmalonyl-CoA (specific activity reduced to 1.1 mCi/mmol). [M2(4) refers to a derivative of M2 in which the C-terminal linker has been replaced with its counterpart from module 4, whereas (5)M3 refers to a derivative of M3 in which the N-terminal linker has been replaced with its counterpart from module 5 (see FIG. 4).] […] Product formation was quantified by comparison with standards of the labeled methylmalonyl-CoA. […]
Kinetic Analysis. For individual modules, the steady-state turnover number was determined from the time course of triketide formation, normalized to the concentration of protein. The dependence of the rate on substrate concentration was measured by varying the concentration of NDK while maintaining saturating levels of NADPH and methylmalonyl-CoA.

In series [4] the test system is M3+TE or (5)M3+TE (DEBS module 3 fused to thioesterase). Kind of series: Coincubation of donor module 2 proteins with module 3+TE: tetraketide lactone 2 formation and KD. It is filed as biochemical. The settings on record: acceptor (5)M3+TE, matched M4-M5 linker pair, saturation curve. The protocol: Assays of M2 and M3+TE contained 10 μM M2 and […] M3+TE, 7 mM NDK, 0.5 mM ^14C-methylmalonyl-CoA (specific activity reduced to 3.4 mCi/mmol), 4 mM NADPH, 440 mM sodium phosphate, 1 mM EDTA, 2.5 mM DTT, and 20% w/v glycerol, pH 7.2, in 70 μL. Assays of M2(4) and (5)M3+TE were identical, except they contained 0.5 μM M2(4), 0.5-5 μM (5)M3+TE, and 0.4 mM ^14C-methylmalonyl-CoA (specific activity reduced to 6.2 mCi/mmol). The concentration of M2(4) was limiting in order to facilitate its saturation with (5)M3+TE. The reactions were prewarmed at 30° C. and initiated by the addition of the methylmalonyl-CoA. As described above, 20 μL aliquots were removed at various time points and processed. […]
For tetraketide formation, the rate of production of tetaketide was recorded for varying concentrations of M3+TE [or (5)M3+TE] at a fixed concentration of M2 [or M2(4)] and saturating concentrations of substrates. By fitting the rate dependence of tetraketide to a saturation curve, the maximal velocity (vmax) of tetraketide production was determined, and was assumed to represent the case where every M2 homodimer was productively associated with an M3+TE homodimer. Thus, the affinity of this protein-protein interaction could be calculated from the rate v=kcat[M2−M3] […]

Series [5] concerns the target M3+TE or (5)M3+TE (DEBS module 3 fused to thioesterase). The following applies: with M3+TE, cited from earlier work.
[6] abbreviates: listed as N-terminal linker of module 3.
[7] abbreviates: listed as synthetic peptide mimic of the N-terminal linker of M3.
The mark [8] stands for this setting: diketide to triketide, cell-free.

Consider “H2N-MTDSEKVAEYLRRATLDLRAARQRIRELESD-amide (H-MTDSEKVAEYLRRATLDLRAARQRIRELESD-NH2) [M3 N-term]”, for which the “inhibition of tetraketide production” value with M2 and M3+TE (setting [6]) was “inhibit the formation of 2 in the presence of M2 and M3+TE in a concentration-dependent manner”; with M2 and M3+TE (setting [7]), “lowered the overall rate of tetraketide production in a dose-dependent fashion”; in the series with M2(4) and (5)M3+TE (setting [6]), “No inhibitory effect”; in the series with M2(4) and (5)M3+TE (setting [7]) it was “no such effect”. For the same substance, the “inhibitory effect upon individually assayed modules” value in series [1] was “no inhibitory effect”.
As for “ERL−M2+TE: module 2+TE with the first 39 amino acids from (M5+TE), N-terminal interpolypeptide linker (pRSG64)”, in series [2], the “Triketide Formed” value is “Yes”. In the series on diketide thioester (setting [8]), the Km is 4.6 ± 0.4 mM and the “kcat × 100” value turned out to be 8 ± 0.6 min^−1.
On to “M2(4): derivative of M2 containing the C-terminal linker of DEBS module 4 (pST179)”, for which the kcat in series [3] is about 0.03 min⁻¹. The “kcat of tetraketide lactone 2 synthesis” value in series [4] is 0.74 ± 0.06 min⁻¹ and 0.74 min⁻¹.
Turning to “DEBS1: first protein of 6-deoxyerythronolide B synthase: loading module and extender modules 1 and 2”, the Kd in series [5] (Gokhale et al. 1999, read-out: KD (previously reported value)) was 2600 nM. Moreover, the “rate of formation of the same tetraketide (earlier measurement)” value in series [5] (Pieper et al. 1997) is 0.23 min⁻¹.
For the substance “M5+TE: DEBS module 5 with its natural N-terminal linker fused to thioesterase (pRSG46)”, the “Triketide Formed” value in series [2] is given as “Yes”. Further, in the series on diketide thioester (setting [8]), the Km was 4.7 ± 0.4 mM and the “kcat × 100” value is 7.5 ± 0.7 min^−1.
With “ERL−M6+TE: module 6+TE with the first 39 amino acids from (M5+TE), N-terminal interpolypeptide linker (pRSG54)”, in series [2], the “Triketide Formed” value is “Yes”. Further, the results for the Km in the series on diketide thioester (setting [8]) and with diketide thioester (−NADPH) were 4.3 ± 0.4 mM and 4.1 ± 0.4 mM, respectively. Besides, the “kcat × 100” value turned out to be 9.5 ± 0.6 min^−1 in the series with diketide thioester (setting [8]) and 4.5 ± 0.7 min^−1 in the series with diketide thioester (−NADPH).
